Test results as given in patent US20210052630A1, “Methods and Compositions for Preventing or Treating Heart Disease” (Macau University of Science and Technology, priority 2019, published 2021).

B1: GCGGAUGUAGCCAAGUGGAUCAAGGCAGUGGAUUGUGAAUCCACCAUGCGCGGGUUCAAUUCCCGUCGUUCGCCCCA (nucleic acid)
chain: GCGGAUGUAGCCAAGUGGAUCAAGGCAGUGGAUUGUGAAUCCACCAUGCGCGGGUUCAAUUCCCGUCGUUCGCCCCA
modifications: expressed or natural sequence
notes: tRNA isolated from Panax ginseng C; A. Mey; 77 mer
B2: CGCGGAGUAGAGCAGUUUGGUAGCUCGCAAGGCUCAUAACCUUGAGGUCACGGGUUCAAAUCCUGUCUCCGCAACCA (nucleic acid)
chain: CGCGGAGUAGAGCAGUUUGGUAGCUCGCAAGGCUCAUAACCUUGAGGUCACGGGUUCAAAUCCUGUCUCCGCAACCA
modifications: expressed or natural sequence
notes: as for B1
B3: GCGGAUAUAGUCGAAUGGUAAAAUUUCUCUUUGCCAAGGAGAAGACGCGGGUUCGAUUCCCGCUAUCCGCCCCA (nucleic acid)
chain: GCGGAUAUAGUCGAAUGGUAAAAUUUCUCUUUGCCAAGGAGAAGACGCGGGUUCGAUUCCCGCUAUCCGCCCCA
modifications: expressed or natural sequence
notes: tRNA isolated from Panax ginseng C; A. Mey; 74 mer

What was measured:
Format in all cases: cell-based, Rat
H9C2 cells [1] = experiment: Mitochondrial viability assay, H9C2 cells exposed to hypoxia/reoxygenation (H/R) injury; conditions: 300, 100, 30, 3 nM (FIG. 7A/7B)
Protocol: (§1) H9C2 cell lines were cultured in Dulbecco's Modified Eagle Medium (DMEM) containing 10% FBS and 1% penicillin/streptomycin at humidified atmosphere containing 5% CO2 at 37° C.
(§2) In the cell viability assay or mitochondrial viability assay, exponentially growing cells of H9C2 cell line were plated in 96-well microplate at a density of 5000 cells per well in 100 μL of culture medium and allowed to adhere for 24 h before treatment. […] Subsequently, for cell viability assay, 150 μL dimethyl sulfoxide (DMSO) were added and the optical densities of the resulting solutions were calorimetrically determined at 570 nm using a SpectraMax Paradigm multi-mode microplate reader (Molecular Devices, Sunnyvale, Calif., U.S.A). For mitochondrial viability assay, fluorescence detected at 550 nm excitation and 590 nm emission using SpectraMax Paradigm multi-mode microplate reader. Dose-response curves were obtained and calculated by GraphPad Prism 6 (GraphPad, La Jolla, Calif., USA). Each experiment was carried out for three times and expressed as means±standard deviation.

H9C2 cells [2] = experiment: MTT cell viability assay, H9C2 cells exposed to hypoxia/reoxygenation (H/R) injury; conditions: for cell viability (growth and proliferation of cardiomyocytes) under hypoxia/reoxygenation: 50 nM RNA, vs H/R group, FIG. 3B; for cardioprotective effect (cell viability), concentration series: 100, 50, 25, 12.5 nM, FIG. 4A/4B
Protocol: as §1
In the cell viability assay or mitochondrial viability assay, exponentially growing cells of H9C2 cell line were plated in 96-well microplate at a density of 5000 cells per well in 100 μL of culture medium and allowed to adhere for 24 h before treatment. For hypoxia, hypoxic treatment was achieved by exposing cells to KRB buffer (composition in: NaCl 115 mM, KCl 4.7 mM, CaCl2 2.5 mM, KH2PO4 1.2 mM, MgSO4 1.2 mM, NaHCO3 24 mM, HEPES 10 mM; pH 7.4) at 37° C. for 3 hr in an oxygen-free hypoxic chamber (Stem Cell Technologies, United States), serial concentrations of RNA molecules obtained in Example 1 were then added to the cells […]. For hypoxia/reoxygenation (H/R), Hypoxic treatment was achieved by exposing cells in glucose-free DMEM under conditions of 94.9% N2/5% CO2/0.1% O2 for 12 hr at a hypoxystation (whitley H35 hypoxystation, Don Whitley Scientific Ltd., England), serial concentrations of RNA molecules obtained in Example 1 and 2 were then added to the cells and reoxygenation by incubating in the normoxic condition (95% air/5% CO2) at 37° C. for 6 hr. After hypoxia or hypoxia/reoxygenation, MTT solution (100 μL per well, 0.5 mg/mL solution) or mitochondrial viability stain solution (follow the manufacture's instruction) was added to each well and incubated for 4 h at 37° C. Subsequently, for cell viability assay, 150 μL dimethyl sulfoxide (DMSO) were added and the optical densities of the resulting solutions were calorimetrically determined at 570 nm using a SpectraMax Paradigm multi-mode microplate reader (Molecular Devices, Sunnyvale, Calif., U.S.A). For mitochondrial viability assay, fluorescence detected at 550 nm excitation and 590 nm emission using SpectraMax Paradigm multi-mode microplate reader. Dose-response curves were obtained and calculated by GraphPad Prism 6 (GraphPad, La Jolla, Calif., USA). Each experiment was carried out for three times and expressed as means±standard deviation.

H9C2 cell cytoskeleton = experiment: Cytoskeleton imaging (Rhodamine Phalloidin/DAPI, confocal) of H9C2 cells after H/R injury; conditions: 900, 300, 100, 30, 10, 3, 0.3 nM, FIG. 8A/8B
Protocol: H9C2 cells were plated in p-slide 8 well plate (Ibidi GmbH, Germany) at a density of 10000 cells per well in 200 μL of culture medium and allowed to adhere for 24 h before treatment. Hypoxic treatment was achieved by exposing cells in glucose-free DMEM under conditions of 94.9% N2/5% CO2/0.1% O2 for 12 hr at a hypoxystation (whitley H35 hypoxystation, Don Whitley Scientific Ltd., England), serial concentrations of RNA molecules obtained in Example 2 were then added to the cells and reoxygenation by incubating in the normoxic condition (95% air/5% CO2) at 37° C. for 6 hr. After hypoxia/reoxygenation, cells were stained with Rhodamine Phalloidin and DAPI following the manufacturer's instruction. Images were acquired on a Leica TCS SP8 Confocal Microscopy with a 20× objective.

H9C2 cells [3] = experiment: MTT cell viability assay, H9C2 cells under H/R injury, RNA transfected with DharmaFECT4; conditions: 300, 100, 30 nM, vs H/R+DharmaFECT4 group, FIG. 11A/11B
Protocol: FIG. 11A is a bar chart showing the cell viability of H9C2 cells exposed to hypoxia/reoxygenation (H/R) injury after treatment with RNA molecule HC50 at different concentrations, i.e. 300 nM, 100 nM and 30 nM, by transfected with DharmaFECT4 transfection reagent, compared to a control group, a H/R along with DharmaFECT4 treated group in accordance with an example embodiment (mean±SD n=3; **, p<0.01, vs. vehicle H/R+ DharmaFECT4; ####, p<0.0001 vs. vehicle control). […]
as §2

H9C2 cell line = experiment: MTT cell viability assay, H9C2 cells exposed to hypoxia injury; conditions: 300 nM RNA, H9C2, hypoxia 3 hr, vs hypoxia group, FIG. 3A

| Molecule | cell viability (growth and proliferation of cardiomyocytes) under hypoxia/reoxygenation (H9C2 cells [2]; H9C2, H/R) | cardioprotective effect (cell viability), concentration series (H9C2 cells [2]; H9C2, H/R) | cell viability (growth and proliferation of cardiomyocytes) under hypoxia (H9C2 cell line) | further results |
| --- | --- | --- | --- | --- |
| HC50: double-stranded RNA, sense SEQ ID NO: 2 and antisense SEQ ID NO: 234, 19 base pairs (sense GCGGAUGUAGCCAAGUGGA; antisense UCCACUUGGCUACAUCCGC; cholesterol-conjugated double-stranded RNA, conjugate position not given here) | – | – | – | mitochondrial viability, protective effect against H/R injury, concentration series (H9C2 cells [1]): dose-dependent protective effect against hypoxia/reoxygenation (H/R) injury; cell viability (growth and proliferation of cardiomyocytes), screen of synthesized RNA molecules (H9C2 cells [2]; 300 nM, H9C2, H/R, FIG. 5A/5B): effective in promoting the growth and proliferation of cardiomyocytes; cell viability, protective effect against H/R injury, concentration series (H9C2 cells [2]; 900, 300, 30, 3, 0.3 nM, H9C2, FIG. 6A/6B): dose-dependent protective effect against hypoxia/reoxygenation (H/R) injury; protective effect on cytoskeleton destruction (H9C2 cell cytoskeleton): significantly relieve cytoskeleton destruction of H9C2 cells caused by hypoxia/reoxygenation (H/R) injury in a dose-dependent manner; cell viability (growth and proliferation of cardiomyocytes), transfected with DharmaFECT4 (H9C2 cells [3]): promoted the growth and proliferation of cardiomyocytes against hypoxia/reoxygenation (H/R) injury in a dose-dependent manner |
| B1 | capable to promote the growth and proliferation of cardiomyocytes | significant cardioprotective effects in a dose-dependent manner | – | – |
| B2 | – | – | capable to promote the growth and proliferation of cardiomyocytes | – |
| B3 | capable to promote the growth and proliferation of cardiomyocytes | significant cardioprotective effects in a dose-dependent manner | capable to promote the growth and proliferation of cardiomyocytes | – |
